# Paper PMC1188057, “Dynamic assembly, localization and proteolysis of the Bacillus subtilis SMC complex” (BMC Cell Biology, 2005)
# Legend:
# [1] = molecular target: the molecule itself; test: SEC; analytical gel filtration, Superdex 200 10/300 GL; 50 mM HEPES, 300 mM NaCl, pH 8.0; proteins incubated 30 min; ScpA and ScpB alone or mixed (1:2.5, 1:0.83, 1:10), fractions on SDS-PAGE
# [2] = molecular target: the molecule itself; test: SEC + other: sucrose gradient centrifugation; native weight of purified SMC from sedimentation coefficient 6.6 and Stokes radius 8.5; monomers to dimer
protein,measurement,setting,value
"ScpB (Bacillus subtilis), His-tagged, purified (natural protein, UniProt P35155 1-197, looked up, ScpB, Bacillus subtilis; elutes at 65 kDa in gel filtration (dimer)) MGLDIVNWKAIVEALLYAAGDEGLTKKQLLTVLEIEEPELNTIMADVADEYRGDTRGIELIEYADTYMLSTKKDFAPYLKKLIEVPSKGLSQASLEVLAIVSYKQPITRAEIEEIRGVKSERILHSLVAKALLCEVGRADGPGRAILYGTTPTFLEQFGLKTLDELPPLPENAEEDVLQEEADLFFENFNQTFEDIK",stoichiometry N,[1],2
"SMC protein (Bacillus subtilis), His-tagged, purified (natural protein, UniProt P51834 1-1186, looked up, SMC, Bacillus subtilis; monomeric size 135 kDa as printed; also called wild-type SMC; wild type SMC) MFLKRLDVIGFKSFAERISVDFVKGVTAVVGPNGSGKSNITDAIRWVLGEQSARSLRGGKMEDIIFAGSDSRKRLNLAEVTLTLDNDDHFLPIDFHEVSVTRRVYRSGESEFLINNQPCRLKDIIDLFMDSGLGKEAFSIISQGKVEEILSSKAEDRRSIFEEAAGVLKYKTRKKKAENKLFETQDNLNRVEDILHELEGQVEPLKIQASIAKDYLEKKKELEHVEIALTAYDIEELHGKWSTLKEKVQMAKEEELAESSAISAKEAKIEDTRDKIQALDESVDELQQVLLVTSEELEKLEGRKEVLKERKKNAVQNQEQLEEAIVQFQQKETVLKEELSKQEAVFETLQAEVKQLRAQVKEKQQALSLHNENVEEKIEQLKSDYFELLNSQASIRNELQLLDDQMSQSAVTLQRLADNNEKHLQERHDISARKAACETEFARIEQEIHSQVGAYRDMQTKYEQKKRQYEKNESALYQAYQYVQQARSKKDMLETMQGDFSGFYQGVKEVLKAKERLGGIRGAVLELISTEQKYETAIEIALGASAQHVVTDDEQSARKAIQYLKQNSFGRATFLPLSVIRDRQLQSRDAETAARHSSFLGVASELVTFDPAYRSVIQNLLGTVLITEDLKGANELAKLLGHRYRIVTLEGDVVNPGGSMTGGAVKKKNNSLLGRSRELEDVTKRLAEMEEKTALLEQEVKTLKHSIQDMEKKLADLRETGEGLRLKQQDVKGQLYELQVAEKNINTHLELYDQEKSALSESDEERKVRKRKLEEELSAVSEKMKQLEEDIDRLTKQKQTQSSTKESLSNELTELKIAAAKKEQACKGEEDNLARLKKELTETELALKEAKEDLSFLTSEMSSSTSGEEKLEEAAKHKLNDKTKTIELIALRRDQRIKLQHGLDTYERELKEMKRLYKQKTTLLKDEEVKLGRMEVELDNLLQYLREEYSLSFEGAKEKYQLETDPEEARKRVKLIKLAIEELGTVNLGSIDEFERVNERYKFLSEQKEDLTEAKNTLFQVIEEMDEEMTKRFNDTFVQIRSHFDQVFRSLFGGGRAELRLTDPNDLLHSGVEIIAQPPGKKLQNLNLLSGGERALTAIALLFSILKVRPVPFCVLDEVEAALDEANVFRFAQYLKKYSSDTQFIVITHRKGTMEEADVLYGVTMQESGVSKVISVKLEETKEFVQ",stoichiometry N,[2],2
